These results are taken from patent US20190389914A1 (University of California, published 2019).

Positions count from the first letter of the chain named.

Experiment [1] addresses T1, GAL4 activation domain fusion to HAB1^V393R (Arabidopsis thaliana (Mouse-ear cress), UniProt Q9CAJ0 4-511).
T1 construct: Mutant of the pACT-HAB1 template, which lacks the three N-terminal amino acids of HAB1; Denoted HAB1^!
T1 sequence: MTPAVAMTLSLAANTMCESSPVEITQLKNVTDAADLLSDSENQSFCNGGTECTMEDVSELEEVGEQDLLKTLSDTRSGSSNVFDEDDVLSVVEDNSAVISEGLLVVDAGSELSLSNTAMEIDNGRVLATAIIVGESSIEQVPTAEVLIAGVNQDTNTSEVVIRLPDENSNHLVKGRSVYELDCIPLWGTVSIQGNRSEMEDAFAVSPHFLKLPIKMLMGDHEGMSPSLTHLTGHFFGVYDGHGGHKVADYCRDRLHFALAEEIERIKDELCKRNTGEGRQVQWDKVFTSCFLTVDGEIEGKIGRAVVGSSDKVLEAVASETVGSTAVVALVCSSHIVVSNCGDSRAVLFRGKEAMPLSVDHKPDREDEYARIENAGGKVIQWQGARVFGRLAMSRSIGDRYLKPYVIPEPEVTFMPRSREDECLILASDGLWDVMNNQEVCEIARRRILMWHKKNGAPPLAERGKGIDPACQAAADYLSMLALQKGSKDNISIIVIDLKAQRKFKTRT
The experiment in a line: Y2H, beta-gal staining.

The target of experiment [2] is T2, GAL4 activation domain fusion to HAB1 V393K (Arabidopsis thaliana (Mouse-ear cress), UniProt Q9CAJ0 4-511).
T2 construct: Mutant of the pACT-HAB1 template, which lacks the three N-terminal amino acids of HAB1
T2 sequence: T1 sequence with R390K
The experiment in a line: Y2H, beta-gal staining.

B1: GAL4 DNA binding domain fusion to PYR1 (pBD-PYR1), wild type (receptor)
chain: MKLLSSIEQACDICRLKKLKCSKEKPKCAKCLKNNWECRYSPKTKRSPLTRAHLTEVESRLERLEQLFLLIFPREDLDMILKMDSLQDIKALLTGLFVQDNVNKDAVTDRLASVETDMPLTLRQHRISATSSSEESSNKGQRQLTVSMPSELTPEERSELKNSIAEFHTYQLDPGSCSSLHAQRIHAPPELVWSIVRRFDKPQTYKHFIKSCSVEQNFEMRVGCTRDVIVISGLPANTSTERLDILDDERRVTGFSIIGGEHRLTNYKSVTTVHRFEKENRIWTVVLESYVVDMPEGNSEDDTRMFADTVVKLNLQKLATVAEAMARNSGDGSGSQVT
notes: Yeast two-hybrid bait expressed in S. cerevisiae; also called WT
For B1, the binding result in experiment [1] and in experiment [2] was “no binding (tested: 10 µM ABA)” each time.
